Assay results published in paper PMC9813255 (2023).

Columns and labels:
[1] = biological target: T1, full-length human PQBP5 (His-tag fusion protein) (human, UniProt Q9BSC4-1 1-688); experiment: SPR; fibrillarin analyte, PQBP5 immobilized
T1 chain: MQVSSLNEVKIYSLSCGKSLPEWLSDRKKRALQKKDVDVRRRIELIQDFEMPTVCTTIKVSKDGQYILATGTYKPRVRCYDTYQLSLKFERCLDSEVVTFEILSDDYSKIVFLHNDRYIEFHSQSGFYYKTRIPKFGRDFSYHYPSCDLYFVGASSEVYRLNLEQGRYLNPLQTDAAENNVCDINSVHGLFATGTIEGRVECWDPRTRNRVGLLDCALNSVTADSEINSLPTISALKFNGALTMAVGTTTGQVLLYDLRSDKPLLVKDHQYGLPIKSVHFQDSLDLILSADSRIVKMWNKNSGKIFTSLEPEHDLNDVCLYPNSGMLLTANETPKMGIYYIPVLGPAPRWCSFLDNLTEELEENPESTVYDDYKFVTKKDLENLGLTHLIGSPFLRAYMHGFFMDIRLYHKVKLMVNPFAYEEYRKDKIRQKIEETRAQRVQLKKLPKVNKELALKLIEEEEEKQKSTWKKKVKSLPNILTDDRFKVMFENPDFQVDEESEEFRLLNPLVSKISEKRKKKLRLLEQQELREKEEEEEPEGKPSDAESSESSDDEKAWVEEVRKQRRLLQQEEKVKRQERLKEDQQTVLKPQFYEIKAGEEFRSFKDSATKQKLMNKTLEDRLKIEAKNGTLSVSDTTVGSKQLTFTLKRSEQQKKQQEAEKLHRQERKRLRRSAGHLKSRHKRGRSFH

[2] = biological target: human nucleolin (His-tag fusion protein) (human, UniProt P19338 1-710); experiment: SPR; fibrillarin analyte, nucleolin immobilized
human nucleolin (His-tag fusion protein), sequence (P19338 whole entry, the tested form may be a part): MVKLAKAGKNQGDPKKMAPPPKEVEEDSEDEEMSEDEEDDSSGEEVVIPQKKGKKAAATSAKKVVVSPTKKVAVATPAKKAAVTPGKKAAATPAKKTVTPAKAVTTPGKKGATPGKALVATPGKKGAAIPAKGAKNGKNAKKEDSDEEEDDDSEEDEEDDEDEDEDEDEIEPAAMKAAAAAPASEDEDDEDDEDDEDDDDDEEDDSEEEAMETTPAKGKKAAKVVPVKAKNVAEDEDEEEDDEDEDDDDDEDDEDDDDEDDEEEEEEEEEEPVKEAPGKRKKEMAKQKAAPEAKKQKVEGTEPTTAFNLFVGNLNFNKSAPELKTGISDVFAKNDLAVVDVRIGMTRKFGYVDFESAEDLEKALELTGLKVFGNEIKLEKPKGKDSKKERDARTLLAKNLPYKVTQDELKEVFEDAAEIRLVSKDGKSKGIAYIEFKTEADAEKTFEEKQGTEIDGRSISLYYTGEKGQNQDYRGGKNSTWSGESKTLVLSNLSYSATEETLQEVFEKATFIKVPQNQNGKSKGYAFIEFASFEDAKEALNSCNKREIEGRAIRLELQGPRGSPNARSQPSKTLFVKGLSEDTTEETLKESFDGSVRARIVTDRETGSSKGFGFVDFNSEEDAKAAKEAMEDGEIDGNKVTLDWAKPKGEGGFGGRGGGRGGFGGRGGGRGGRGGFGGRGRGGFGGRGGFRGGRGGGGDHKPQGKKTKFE

Kd [1]: 10 nM | Kd [2]: 2.78 nM
B1: human fibrillarin (His-tag fusion protein) (natural protein)
chain: MKPGFSPRGGGFGGRGGFGDRGGRGGRGGFGGGRGRGGGFRGRGRGGGGGGGGGGGGGRGGGGFHSGGNRGRGRGGKRGNQSGKNVMVEPHRHEGVFICRGKEDALVTKNLVPGESVYGEKRVSISEGDDKIEYRAWNPFRSKLAAAILGGVDQIHIKPGAKVLYLGAASGTTVSHVSDIVGPDGLVYAVEFSHRSGRDLINLAKKRTNIIPVIEDARHPHKYRMLIAMVDVIFADVAQPDQTRIVALNAHTFLRNGGHFVISIKANCIDSTASAEAVFASEVKKMQQENMKPQEQLTLEPYERDHAVVVGVYRPPPKVKN
